B1: DAX-1: DAX1 (NR0B1), cDNA driver (protein, UniProt P51843 1-470, looked up)
Nuclear receptor subfamily 0 …: MAGENHQWQGSILYNMLMSAKQTRAAPEAPETRLVDQCWGCSCGDEPGVGREGLLGGRNVALLYRCCFCGKDHPRQGSILYSMLTSAKQTYAAPKAPEATLGPCWGCSCGSDPGVGRAGLPGGRPVALLYRCCFCGEDHPRQGSILYSLLTSSKQTHVAPAAPEARPGGAWWDRSYFAQRPGGKEALPGGRATALLYRCCFCGEDHPQQGSTLYCVPTSTNQAQAAPEERPRAPWWDTSSGALRPVALKSPQVVCEAASAGLLKTLRFVKYLPCFQVLPLDQQLVLVRNCWASLLMLELAQDRLQFETVEVSEPSMLQKILTTRRRETGGNEPLPVPTLQHHLAPPAEARKVPSASQVQAIKCFLSKCWSLNISTKEYAYLKGTVLFNPDVPGLQCVKYIQGLQWGTQQILSEHTRMTHQGPHDRFIELNSTLFLLRFINANVIAELFFRPIIGTVSMDDMMLEMLCTKI
B2: SHP: Small Heterodimer Partner (NR0B2), cDNA driver (protein, UniProt Q15466 1-257, looked up)
Nuclear receptor subfamily 0 …: MSTSQPGACPCQGAASRPAILYALLSSSLKAVPRPRSRCLCRQHRPVQLCAPHRTCREALDVLAKTVAFLRNLPSFWQLPPQDQRRLLQGCWGPLFLLGLAQDAVTFEVAEAPVPSILKKILLEEPSSSGGSGQLPDRPQPSLAAVQWLQCCLESFWSLELSPKEYACLKGTILFNPDVPGLQAASHIGHLQQEAHWVLCEVLEPWCPAAQGRLTRVLLTASTLKSIPTSLLGDLFFRPIIGDVDIAGLLGDMLLLR

Columns and labels:
mLeptin promoter = experiment: NHR-promoter luciferase screen, mLeptin promoter; format: cell-based, mouse; settings: for Luc. act., normalized to lacZ / Normalized Luc. act., normalized to control: Table 7, mLeptin; for Results of assays of transcription factor (+/- ligand) with mLeptin: Table 6d, luciferase activity relative to control (control = 1.00)
Outline: (§1)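 CV-1 cells were co-transfected with 50 ng NHR (homodimer or NHR/RXR heterodimer), 100 ng promoter-luciferase construct and 50 ng LacZ. Luciferase was normalized to LacZ and to a no-NHR/no-ligand control.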

mPOMC promoter = experiment: NHR-promoter luciferase screen, mPOMC promoter; format: cell-based, mouse; settings: for Results of assays of transcription factor (+/- ligand) with mPOMC: Table 6d, luciferase activity relative to control (control = 1.00); for Luc. act., normalized to lacZ / Normalized Luc. act., normalized to control: mPOMC promoter, HR component with or without ligand; for Normalized Luc. act., normalized to control: relative to control
Outline: as §1

hMDR1 promoter = experiment: NHR-promoter luciferase screen, hMDR1 promoter; format: cell-based, human; settings: for Luc. act., normalized to lacZ / Normalized Luc. act., normalized to control: MDR1 promoter, HR/ligand component; for hMDR1 promoter reporter activity: transcription factor +/- ligand, control = 1.00
Outline: as §1

Bmal1 promoter = experiment: NHR-promoter luciferase screen, Bmal1 promoter; format: cell-based, mouse; settings: for Luc. act., normalized to lacZ / Normalized Luc. act., normalized to control: Bmal1 promoter, HR component without or with ligand; for mBmal1 promoter reporter activity: transcription factor +/- ligand, control = 1.00
Outline: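 CV-1 cells co-transfected with 50 ng NHR (V5H6-tagged, pcDNA3.1; homodimer or RXR heterodimer), 100 ng Bmal1 promoter-luciferase and 50 ng LacZ. Luciferase was normalized to LacZ and to a no-NHR/ligand control.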

RevErba promoter = experiment: NHR-promoter luciferase screen, RevErba (RVRa) promoter; format: cell-based; set-up: key to mRevErba promoter reporter activity / Normalized Luc. act., normalized to control: luciferase activity normalized to lacZ and to control (no NHR/ligand); settings: for Luc. act., normalized to lacZ / Normalized Luc. act., normalized to control: HR component without or with ligand; for normalized Luc. act. on a logarithmic scale (column without head, Table 33): log10 of activity normalized to control; for mRevErba promoter reporter activity: transcription factor +/- ligand, control = 1.00
Outline: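 CV-1 cells co-transfected with NHR (pcDNA3.1, C-terminal V5H6 tag) as homodimer or RXR heterodimer, RevErbα promoter–luciferase reporter and LacZ transfection control; ligand added where applicable. Luciferase normalized to LacZ and to no-NHR/no-ligand control.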

Molecule	Luc. act., normalized to lacZ (mLeptin promoter)	Normalized Luc. act., normalized to control (mLeptin promoter)	Results of assays of transcription factor (+/- ligand) with mLeptin (mLeptin promoter)	Results of assays of transcription factor (+/- ligand) with mPOMC (mPOMC promoter)	Luc. act., normalized to lacZ (mPOMC promoter)	Normalized Luc. act., normalized to control (mPOMC promoter)	Luc. act., normalized to lacZ (hMDR1 promoter)	Normalized Luc. act., normalized to control (hMDR1 promoter)	hMDR1 promoter reporter activity (hMDR1 promoter)	Luc. act., normalized to lacZ (Bmal1 promoter)	Normalized Luc. act., normalized to control (Bmal1 promoter)	mBmal1 promoter reporter activity (Bmal1 promoter)	Luc. act., normalized to lacZ (RevErba promoter; RVRa promoter)	Normalized Luc. act., normalized to control (RevErba promoter; RVRa promoter)	normalized Luc. act. on a logarithmic scale (column without head, Table 33) (RevErba promoter; RVRa promoter)	mRevErba promoter reporter activity (RevErba promoter)	negative reciprocal of normalized Luc. act. (fold repression; Table 33) (RevErba promoter; RVRa promoter, given only where activity is below control)
B1	2.5	0.9	0.87	0.92	63.4	0.9	0.3	0.9	0.89	19.6	1.3	1.25	29.4	1.1	0.02	1.05	–
B2	2.7	0.9	0.91	0.95	65.6	1.0	0.3	0.8	0.84	14.0	0.9	0.89	22.7	0.8	−0.09	0.81	−1.229

Reference: patent US20110263454A1, “Methods of Identifying Functional Characteristics of Promoters, Transcription Modifying Proteins and Transcription Modulating Agents” (Salk Institute for Biological Studies, priority 2008, published 2011)
